Our source for the Kd, koff and kon values is patent US20210032312A1 (Janssen / Centocor, published 2021).

Assay [1] has as its target T1, human CD8A-Fc (recombinant human CD8 alpha fused to Fc fragment of human IgG1) (human, UniProt P01732 22-182, limits assumed).
T1 construct: SPR ligand, captured by goat anti-human Fc; also called hCD8A-Fc; recombinant CD8 alpha; not shown: linker with flag (and polyhistidine) tag and Fc fragment of human IgG1; depends on which of the two constructs was used
Description: SPR (ProteOn), captured hCD8A-Fc, heterogeneous ligand fit, higher affinity population. As for the experimental part:
(§1) Human CD8A-Fc was then captured at five surface densities ranging from 200 to 1200 response units, leaving the 6th channel as empty channel control for GAH-Fc IgG surface. Binding was measured by flowing five different concentrations of anti-CD8A FN3 domains (1 μM diluted in a 3-fold dilution series) as analytes simultaneously in the horizontal orientation over the captured hCD8A-Fc surfaces, with a sixth analyte channel containing only running buffer PBST. All interactions were measured at 100 uL/min flow rate with association and dissociation times being 4, 30 minutes respectively. […] Data analyses were performed using Bio-Rad ProteOn Manager software (version 3.1.0.6). Raw data were double referenced by subtraction of the interspot (empty chip surface, no protein immobilized or captured) signals to correct the non-specific binding of the FN3 domain to the pre-coated GAH-Fc IgG surface, followed by a double referencing using the buffer blank response (to correct for any baseline drift resulting from ligand dissociation over time). […] Given that the GAH-Fc capture of hCD8A-Fc format is the least disruptive relative to other formats in introducing potential experimental artifacts (such as ligand activity loss and/or artificial eptiopes/heterogeneous ligand population due to amine coupling), it is considered that the results from the GAH-Fc capture experiments reported here represent the most reliable ProteOn SPR data, despite the non-conforming 1:1 Langmuir fits observed in many instances. A heterogeneous ligand model was chosen to fit the data assuming two different ligand species, either due to the heterogeneity in the ligand protein population or due to potential different mechanisms for each FN3 domain binding to the 2 hCD8A monomers in the Fc fusion protein.

For assay [2], the target named is T1, human CD8A-Fc (recombinant human CD8 …). Description: SPR, dissociation rate on recombinant CD8 alpha.
Assay [3] has the same target. Description: SPR (ProteOn), captured hCD8A-Fc, heterogeneous ligand fit, lower affinity population. As for the experimental part:
as §1

For assay [4] the target is unchanged. Briefly: SPR on recombinant human CD8 alpha after DFO conjugation, lower affinity population. As for the experimental part:
(§2) Data analyses were performed using Bio-Rad ProteOn Manager software (version 3.1.0.6). Raw data were double referenced by subtraction of the interspot (empty chip surface, no protein immobilized or captured) signals to correct the non-specific binding of the FN3 domain to the pre-coated GAH-Fc IgG surface, followed by a double referencing using the buffer blank response (to correct for any baseline drift resulting from ligand dissociation over time). […] Given that the GAH-Fc capture of hCD8A-Fc format is the least disruptive relative to other formats in introducing potential experimental artifacts (such as ligand activity loss and/or artificial eptiopes/heterogeneous ligand population due to amine coupling), it is considered that the results from the GAH-Fc capture experiments reported here represent the most reliable ProteOn SPR data, despite the non-conforming 1:1 Langmuir fits observed in many instances. A heterogeneous ligand model was chosen to fit the data assuming two different ligand species, either due to the heterogeneity in the ligand protein population or due to potential different mechanisms for each FN3 domain binding to the 2 hCD8A monomers in the Fc fusion protein. In this case, because each anti-CD8A FN3 domain would have separate affinities, the resultant sensorgram reflects the sum of two independent reactions with two sets of rate constants, which were reported for each FN3 domain binding.
(§3) Following conjugation to DFO, the binding of each anti-CD8A FN3 domain to recombinant human CD8 alpha was assessed by surface plasmon resonance as previously described. All samples retained tight binding to human CD8A following mutation of E54 to Cys and conjugation to DFO (Table 8).

Assay [5] shares this target. Briefly: SPR on recombinant human CD8 alpha after DFO conjugation, higher affinity population. As to the method:
as §2, §3

Residue numbers refer to the chain shown, from its start.

T1 sequence (P01732 22-182 limits assumed): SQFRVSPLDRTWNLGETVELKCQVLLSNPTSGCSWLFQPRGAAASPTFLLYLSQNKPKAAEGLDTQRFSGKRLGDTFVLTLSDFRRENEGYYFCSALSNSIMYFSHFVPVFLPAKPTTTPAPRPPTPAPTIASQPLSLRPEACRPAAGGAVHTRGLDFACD

B1: P282ER9P1360_C8 (designed binder)
chain: LPAPKNLVVSRVTEDSARLSWTAPDAAFDSFGILYYEPVDSGEAITLPVPGSERSYDLTGLKPGTEYWVVITGVKGGAPSTPLGTIFTT
notes: FN3 domain (Centyrin); purified as His-tagged protein, tag not in the entry
Take B1: the results for the dissociation constant (Kd) in assay [1] and in assay [3] were 0.2 nM and 4.1 nM, respectively. The koff in assay [1] was found to be 4.71e-05 s⁻¹; in assay [2], 0.000179 s⁻¹; in assay [3], 9.52e-05 s⁻¹. Moreover, the kon worked out at 218000 M⁻¹ s⁻¹ in assay [1] and 30900 M⁻¹ s⁻¹ in assay [3].

B2: CD8S405 (designed binder)
chain: B1 chain with P48T
notes: P48T mutant of P282ER9P1360_C8; the entry holds the mutation
Take B2: the koff in assay [2] turned out to be 0.00114 s⁻¹.

B3: CD8S365-DFO (designed binder)
chain: B1 chain with E53C
modifications: deferoxamine (DFO) conjugated to the free cysteine introduced by E54C
notes: DFO conjugate of CD8S365
On to B3, for which, in assay [4], the dissociation constant (Kd) came to 9.73 nM, the koff stood at 4.29e-05 s⁻¹ and the kon came to 4410 M⁻¹ s⁻¹. Besides, in assay [5], the dissociation constant Kd came out at 0.6 nM, the off-rate (koff) came out at 4.18e-05 s⁻¹ and the kon is 68000 M⁻¹ s⁻¹.

B4: P282DR9P1359_G7 (designed binder)
chain: LPAPKNLVVSRVTEDSARLSWTAPDAAFDSFAITYIEKEHIEDGEAIVLTVPGSERSYDLTGLKPGTEYWVPIWGVKGGANSWPLSAIFTT
notes: as for B1
For the molecule B4, the dissociation constant Kd was 0.05 nM in assay [1] and 2.1 nM in assay [3]. The off-rate constant (koff) in assay [1] was 1.49e-05 s⁻¹; in assay [2], 1.06e-05 s⁻¹; in assay [3], 5.51e-05 s⁻¹. The kon in assay [1] turned out to be 276000 M⁻¹ s⁻¹; in assay [3], 68400 M⁻¹ s⁻¹.

B5: CD8S370-DFO (designed binder)
chain: B4 chain with E55C
modifications: deferoxamine (DFO) conjugated to the free cysteine introduced by E54C
notes: DFO conjugate of CD8S370
B5: in assay [4], the Kd worked out at 13 nM, the koff worked out at 7.65e-05 s⁻¹ and the kon worked out at 5910 M⁻¹ s⁻¹. Further, in assay [5], the Kd is no more than 0.3 nM, the koff was no more than 2e-05 s⁻¹ and the association rate constant (kon) turned out to be 46400 M⁻¹ s⁻¹.

B6: CD8S367-DFO (designed binder)
chain: LPAPKNLVVSRVTEDSARLSWTAPDAAFDSFAIAYPEWPPQGEAIVLTVPGSCRSYDLTGLKPGTEYFVVIYGVKGGSYSAPLSAIFTT
modifications: deferoxamine (DFO) conjugated to the free cysteine introduced by E54C
notes: DFO conjugate of CD8S367
Take B6: in assay [4], the Kd was 89.1 nM, the koff was 0.000975 s⁻¹ and the kon came out at 10900 M⁻¹ s⁻¹. Besides, in assay [5], the equilibrium dissociation constant (Kd) was found to be 1.55 nM, the koff was found to be 0.000131 s⁻¹ and the on-rate (kon) amounted to 84500 M⁻¹ s⁻¹.

B7: CD8S368-DFO (designed binder)
chain: B6 chain with A32Q, Q41P, V70I, Y72Q, S78V, Y79E, A81W
modifications: deferoxamine (DFO) conjugated to the free cysteine introduced by E54C
notes: DFO conjugate of CD8S368
Regarding B7, in assay [4], the Kd came out at 13.6 nM, the koff worked out at 9.98e-05 s⁻¹ and the kon came to 7320 M⁻¹ s⁻¹. In assay [5], the dissociation constant Kd was found to be 0.23 nM, the koff worked out at 2.53e-05 s⁻¹ and the on-rate constant (kon) is 108000 M⁻¹ s⁻¹.

B8: P282DR9P1359_F7 (designed binder)
chain: B6 chain with C53E
notes: as for B1
For B8, the equilibrium dissociation constant (Kd) in assay [1] turned out to be 0.5 nM; in assay [3], 12 nM. In addition, the off-rate constant (koff) turned out to be 7.99e-05 s⁻¹ in assay [1], 0.000339 s⁻¹ in assay [2] and 0.000365 s⁻¹ in assay [3]. Besides, the figures for the kon in assay [1] and in assay [3] were 404000 M⁻¹ s⁻¹ and 40300 M⁻¹ s⁻¹, respectively.

B9: P283AR9P1362_D6 (designed binder)
chain: LPAPKNLVVSRVTEDSARLSWAKRPGAFDSFLIQYQESEKVGEAIVLTVPGSERSYDLTGLKPGTEYTVSIYGVDVKYDIDSRPISSNPLSAIFTT
notes: as for B1
For the molecule B9, in assay [1], the dissociation constant (Kd) was determined as 0.03 nM, the koff stood at 1e-06 s⁻¹ and the kon stood at 155000 M⁻¹ s⁻¹. Further, in assay [3], the Kd is 0.98 nM, the off-rate constant (koff) was 3.12e-05 s⁻¹ and the association rate constant (kon) was determined as 56200 M⁻¹ s⁻¹.

B10: CD8S369-DFO (designed binder)
chain: B9 chain with E53C
modifications: deferoxamine (DFO) conjugated to the free cysteine introduced by E54C
notes: DFO conjugate of CD8S369
As to B10, in assay [4], the Kd is no more than 3.4 nM, the koff was no more than 1e-05 s⁻¹ and the kon was determined as 2870 M⁻¹ s⁻¹. In addition, in assay [5], the dissociation constant (Kd) is no more than 0.3 nM, the dissociation rate constant (koff) is no more than 1e-05 s⁻¹ and the kon was found to be 37300 M⁻¹ s⁻¹.

B11: P282DR9P1359_C5 (designed binder)
chain: LPAPKNLVVSRVTEDSARLSWTAPDAAFDSFWITYPEWPDPGGEAIVLTVPGSERSYDLTGLKPGTEYFVVIYGVKGGEIYSPLSAIFTT
notes: as for B1
With B11, the equilibrium dissociation constant (Kd) in assay [1] stood at 0.02 nM; in assay [3], 6.5 nM. Further, the dissociation rate constant (koff) was 5.79e-06 s⁻¹ in assay [1], 0.000147 s⁻¹ in assay [2] and 0.000127 s⁻¹ in assay [3]. Moreover, the kon in assay [1] turned out to be 300000 M⁻¹ s⁻¹; in assay [3], 19200 M⁻¹ s⁻¹.

B12: CD8S366-DFO (designed binder)
chain: B11 chain with E54C
modifications: deferoxamine (DFO) conjugated to the free cysteine introduced by E54C
notes: DFO conjugate of CD8S366
For B12, in assay [4], the Kd amounted to 18.2 nM, the koff was determined as 0.000106 s⁻¹ and the kon was 5850 M⁻¹ s⁻¹. Also, in assay [5], the Kd came to 0.9 nM, the koff was found to be 7.01e-05 s⁻¹ and the on-rate constant (kon) amounted to 79500 M⁻¹ s⁻¹.
